Data published in US20150203575A1 (Genentech, published 2015).
Like-named read-outs stand apart in the source and are kept apart here.

Legend:
[1] = target: T1, CLEC4G expressed on cells (human, UniProt Q6UXB4 1-293); test: flow cytometry, transfected 293T cells, 50 µg/ml
T1 construct: Clone of the Origene human cDNA library; also called C type lectin superfamily 4 member G
T1 sequence: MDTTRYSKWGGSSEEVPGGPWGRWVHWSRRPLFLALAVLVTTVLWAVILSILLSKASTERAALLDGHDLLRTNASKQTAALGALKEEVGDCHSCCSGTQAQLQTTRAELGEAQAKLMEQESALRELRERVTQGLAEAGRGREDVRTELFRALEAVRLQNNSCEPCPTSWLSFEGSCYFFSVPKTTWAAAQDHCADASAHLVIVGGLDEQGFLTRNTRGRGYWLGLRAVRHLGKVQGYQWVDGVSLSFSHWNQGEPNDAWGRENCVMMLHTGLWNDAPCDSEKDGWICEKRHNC

[2] = target: T2, human COLEC12 expressed on cells (human, UniProt Q5KU26 1-742); test: flow cytometry, transfected 293T cells, 2 µg/ml
T2 construct: also called hCOLEC12; C-terminal his tagged hCOLEC12
T2 sequence (Q5KU26 whole entry S522P/G606S): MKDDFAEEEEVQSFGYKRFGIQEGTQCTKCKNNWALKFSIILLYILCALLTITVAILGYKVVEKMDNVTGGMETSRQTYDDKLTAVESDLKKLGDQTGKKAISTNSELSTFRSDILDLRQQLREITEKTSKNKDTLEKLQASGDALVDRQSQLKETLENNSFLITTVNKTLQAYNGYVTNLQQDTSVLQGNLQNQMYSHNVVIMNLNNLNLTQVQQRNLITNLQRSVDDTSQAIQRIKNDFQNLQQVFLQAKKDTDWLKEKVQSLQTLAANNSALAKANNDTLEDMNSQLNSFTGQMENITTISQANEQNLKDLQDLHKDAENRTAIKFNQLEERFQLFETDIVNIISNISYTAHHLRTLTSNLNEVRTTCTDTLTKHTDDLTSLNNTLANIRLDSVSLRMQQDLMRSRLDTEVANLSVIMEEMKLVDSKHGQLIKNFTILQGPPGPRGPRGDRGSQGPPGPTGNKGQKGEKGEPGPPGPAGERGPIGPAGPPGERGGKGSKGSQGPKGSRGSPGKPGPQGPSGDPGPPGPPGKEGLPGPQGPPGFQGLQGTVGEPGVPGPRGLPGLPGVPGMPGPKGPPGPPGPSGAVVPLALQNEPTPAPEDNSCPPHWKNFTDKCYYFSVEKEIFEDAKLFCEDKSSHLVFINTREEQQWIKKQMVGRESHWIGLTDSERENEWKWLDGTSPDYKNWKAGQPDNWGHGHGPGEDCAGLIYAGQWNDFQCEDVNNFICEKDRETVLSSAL

[3] = target: T1, CLEC4G expressed on cells; test: flow cytometry, transfected 293T cells, 2 µg/ml
MAG expressed on cells [4] = target: T3, MAG expressed on cells (human, UniProt P20916 20-626); test: flow cytometry, transfected 293T cells, 2 µg/ml
T3 construct: Clone of the Origene human cDNA library; also called Myelin associated glycoprotein; SIGLEC4A
T3 sequence: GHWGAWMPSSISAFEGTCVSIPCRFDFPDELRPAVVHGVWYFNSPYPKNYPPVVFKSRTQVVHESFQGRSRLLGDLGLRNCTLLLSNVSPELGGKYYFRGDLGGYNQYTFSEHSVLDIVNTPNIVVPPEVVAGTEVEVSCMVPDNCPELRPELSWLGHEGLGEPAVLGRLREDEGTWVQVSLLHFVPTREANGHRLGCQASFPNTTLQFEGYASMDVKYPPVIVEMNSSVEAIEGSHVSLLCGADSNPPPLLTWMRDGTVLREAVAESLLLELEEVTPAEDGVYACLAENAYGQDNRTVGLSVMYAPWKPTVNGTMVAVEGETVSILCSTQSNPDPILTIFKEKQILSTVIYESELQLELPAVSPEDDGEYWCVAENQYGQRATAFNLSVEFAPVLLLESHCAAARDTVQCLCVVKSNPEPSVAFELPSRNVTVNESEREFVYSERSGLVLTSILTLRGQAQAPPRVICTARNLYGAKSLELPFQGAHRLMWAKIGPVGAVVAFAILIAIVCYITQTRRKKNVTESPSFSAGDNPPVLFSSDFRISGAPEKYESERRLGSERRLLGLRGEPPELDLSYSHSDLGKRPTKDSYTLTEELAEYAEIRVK

[5] = target: T4, LRRTM4 expressed on cells (human, UniProt Q86VH4 31-590); test: flow cytometry, transfected 293T cells, 2 µg/ml
T4 construct: Clone of the Origene human cDNA library; also called Leucine rich repeat transmembrane neuronal 4
T4 sequence (Q86VH4 31-590 limits assumed): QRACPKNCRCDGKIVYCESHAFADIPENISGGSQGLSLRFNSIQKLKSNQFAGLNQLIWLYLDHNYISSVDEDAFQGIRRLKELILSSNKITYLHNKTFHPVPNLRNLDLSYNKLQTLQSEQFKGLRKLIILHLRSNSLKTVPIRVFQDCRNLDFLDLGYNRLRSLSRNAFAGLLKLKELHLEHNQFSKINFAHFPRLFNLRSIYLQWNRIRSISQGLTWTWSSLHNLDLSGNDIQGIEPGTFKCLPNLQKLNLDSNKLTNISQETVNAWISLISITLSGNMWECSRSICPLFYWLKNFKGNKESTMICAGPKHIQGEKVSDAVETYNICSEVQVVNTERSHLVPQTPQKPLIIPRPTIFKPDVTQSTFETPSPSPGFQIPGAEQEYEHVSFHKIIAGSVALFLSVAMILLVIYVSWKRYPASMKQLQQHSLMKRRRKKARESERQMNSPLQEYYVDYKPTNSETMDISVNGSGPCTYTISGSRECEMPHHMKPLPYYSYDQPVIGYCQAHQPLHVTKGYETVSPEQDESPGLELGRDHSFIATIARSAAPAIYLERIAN

BR3 expressed on cells [6] = target: T5, BR3 expressed on cells (human, UniProt Q96RJ3 1-184); test: flow cytometry, transfected 293T cells, 50 µg/ml
T5 construct: Clone of the Origene human cDNA library
T5 sequence: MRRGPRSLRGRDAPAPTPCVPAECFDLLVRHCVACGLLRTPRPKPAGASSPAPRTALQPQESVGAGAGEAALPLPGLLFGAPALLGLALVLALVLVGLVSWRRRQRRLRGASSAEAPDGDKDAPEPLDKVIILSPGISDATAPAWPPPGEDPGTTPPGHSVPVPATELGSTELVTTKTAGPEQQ

[7] = target: T6, IL-2Ra expressed on cells (human, UniProt P01589 22-272); test: flow cytometry, transfected 293T cells, 50 µg/ml
T6 construct: Clone of the Origene human cDNA library; also called Interleukin 2 receptor alpha
T6 sequence: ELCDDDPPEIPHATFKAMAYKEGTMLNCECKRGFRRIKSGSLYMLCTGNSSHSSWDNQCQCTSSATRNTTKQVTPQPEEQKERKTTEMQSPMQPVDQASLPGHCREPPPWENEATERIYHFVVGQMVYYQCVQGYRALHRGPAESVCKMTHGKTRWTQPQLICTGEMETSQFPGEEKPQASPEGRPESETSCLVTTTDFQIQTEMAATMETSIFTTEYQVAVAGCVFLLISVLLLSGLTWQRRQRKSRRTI

PSS8 expressed on cells [8] = target: T7, PSS8 expressed on cells (human, UniProt Q16651 30-343); test: flow cytometry, transfected 293T cells, 50 µg/ml
T7 construct: Clone of the Origene human cDNA library; also called Protease serine 8; prostasin
T7 sequence (Q16651 30-343 limits assumed): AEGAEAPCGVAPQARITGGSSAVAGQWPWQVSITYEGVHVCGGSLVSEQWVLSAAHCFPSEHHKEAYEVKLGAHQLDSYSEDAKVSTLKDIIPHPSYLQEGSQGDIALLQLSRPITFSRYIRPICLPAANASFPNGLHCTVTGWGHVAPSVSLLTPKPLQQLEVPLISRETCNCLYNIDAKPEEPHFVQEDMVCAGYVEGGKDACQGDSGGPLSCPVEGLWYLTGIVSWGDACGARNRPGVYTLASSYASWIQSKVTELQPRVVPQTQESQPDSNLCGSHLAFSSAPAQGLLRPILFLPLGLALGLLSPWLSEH

MAG expressed on cells [9] = target: T3, MAG expressed on cells; test: flow cytometry, transfected 293T cells
[10] = target: T4, LRRTM4 expressed on cells; test: flow cytometry, transfected 293T cells, 50 µg/ml
[11] = target: T4, LRRTM4 expressed on cells; test: flow cytometry, transfected 293T cells, 2 µg/ml; remark: listed apart in the source
[12] = target: T2, human COLEC12 expressed on cells; test: flow cytometry, transfected 293T cells, 2 µg/ml; remark: listed apart in the source
[13] = target: T1, CLEC4G expressed on cells; test: flow cytometry, transfected 293T cells, 2 µg/ml; remark: listed apart in the source
MAG expressed on cells [14] = target: T3, MAG expressed on cells; test: flow cytometry, transfected 293T cells, 50 µg/ml
[15] = target: T4, LRRTM4 expressed on cells; test: flow cytometry, transfected 293T cells, 50 µg/ml; remark: listed apart in the source
BR3 expressed on cells [16] = target: T5, BR3 expressed on cells; test: flow cytometry, transfected 293T cells
PSS8 expressed on cells [17] = target: T7, PSS8 expressed on cells; test: flow cytometry, transfected 293T cells

B1: mPILRα-Fc (Fc fusion)
chain: not shown
notes: also called mouse PILRα-Fc; WT mPILRα-Fc; not shown: Fc of mouse IgG2a (PILRα-mIgG2a, called PILRα-Fc)
% cells in lower right quadrant [1]: 85.5%
% cells in lower right quadrant [2]: 0.082%
% cells in lower right quadrant [3]: 69.9%
% cells in lower right quadrant (MAG expressed on cells [4]): 0.039%
% cells in lower right quadrant [5]: 2.68%
% cells in lower right quadrant (BR3 expressed on cells [6]): 53.3%
% cells in lower right quadrant [7]: 55.7%
% cells in lower right quadrant (PSS8 expressed on cells [8]): 30.6%
binding result (MAG expressed on cells [9]): no binding (tested: 50 µg/ml)
% cells in lower right quadrant [10]: 16.6%
% cells in lower right quadrant [11]: 2.68%
% cells in lower right quadrant [12]: 0.082%
% cells in lower right quadrant [13]: 69.9%
% cells in lower right quadrant (MAG expressed on cells [14]): 0.55%
% cells in lower right quadrant [15]: 16.6%

B2: mPILRαR133A-Fc (Fc fusion)
chain: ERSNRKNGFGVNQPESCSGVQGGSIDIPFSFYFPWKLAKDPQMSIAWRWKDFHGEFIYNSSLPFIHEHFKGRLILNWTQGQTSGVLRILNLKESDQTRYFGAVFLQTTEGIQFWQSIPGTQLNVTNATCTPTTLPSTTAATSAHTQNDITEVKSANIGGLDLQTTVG
notes: Arg mutant of mPILRα-Fc; also called mPILRα133A-Fc; variant mPILRα (R133A); not shown: Fc of mouse IgG2a (PILRα-mIgG2a, called PILRα-Fc)
binding result (BR3 expressed on cells [16]): no binding (tested: 50 µg/ml)
binding result (PSS8 expressed on cells [17]): no binding (tested: 50 µg/ml)
% cells in lower right quadrant [1]: 0.045%
% cells in lower right quadrant [2]: 0.014%
% cells in lower right quadrant [3]: 0.044%
% cells in lower right quadrant (MAG expressed on cells [4]): 0%
% cells in lower right quadrant [5]: 0.025%
binding result (MAG expressed on cells [9]): no binding (tested: 50 µg/ml)
% cells in lower right quadrant [10]: 0.019%
% cells in lower right quadrant [11]: 0.025%
% cells in lower right quadrant [12]: 0.014%
% cells in lower right quadrant [13]: 0.044%
% cells in lower right quadrant (MAG expressed on cells [14]): 0%
% cells in lower right quadrant [15]: 0.019%
